Common to all, as to experiment: purified protein
Common to all, as to assay type: biochemical, Asarum sieboldii
Common to all, as to conditions: 0.5 mM NADPH, 50 mM Tris-HCl pH 7.5, 2 mM DTT, 30 °C

Substrate in data set [1]: COc1cc(/C=C/C=O)cc(OC)c1O
Substrate in data set [2]: O=C/C=C/c1ccc(O)cc1
Substrate in data set [3]: COc1cc(/C=C/C=O)ccc1O

B1: AsCAD5 (Asarum sieboldii) (protein)
chain: MSNQSGTDNCLGWAARDPSGILSPHSFSRRSIGSDDVSLKITHCGVCYADVAWTRNKVGDSMYPLVPGHEIVGIVQEVGSDVNRFKIGDHVGVGTYVNSCRECVYCKDKLEVVCQKGPTLTFNSLDVDGTITKGGYSSHIVVNERYCYRIPDGYPLVSAAPLLCAGITVYAPMMRHKMNQPGKSLGVIGLGGLGHMAVKFGKAFGLNVTVFSTSESKKEEALKLLGADRFVISSDKKQMEGVMKSLDFIIDTASGDHPFDPYMALLKTTGILVLVGFPSEVKFNPGSLILGLRTLSGSVTGGTKDTQEMLEFCAANKIYPEIELINIEYINEALERLINREVKYRFVIDIENSLK
notes: full ORF 1068 bp (about 355 residues), pMAL-C5X MBP fusion in E. coli Rosetta (DE3), MBP tag removed by Factor Xa, ca. 40 kDa
The Km is the substrate concentration at which the rate is half of its maximum. In general, Vmax refers to the top rate of the reaction or transport when substrate is in excess. The term kcat denotes the number of substrate molecules converted per active site and unit of time at saturation. As usually defined, the kcat/Km is the turnover number divided by the Michaelis constant. For the protein B1, in “purified protein [1]”, the Km amounted to 35.02 ± 8.043 µM, the Vmax worked out at 26.9 µmol/min/mg, the kcat was 291 s⁻¹ and the kcat/Km stood at 8.3e+06 M⁻¹ s⁻¹. For the same protein, in “purified protein [2]”, the Km stood at 45.52 ± 8.888 µM, the Vmax was found to be 23 µmol/min/mg, the kcat turned out to be 249 s⁻¹ and the kcat/Km came to 5.47e+06 M⁻¹ s⁻¹. In the data set “purified protein [3]”, the Km is reported as 27.32 ± 6.186 µM, the maximum rate (Vmax) amounted to 20.5 µmol/min/mg, the kcat worked out at 222 s⁻¹ and the catalytic efficiency (kcat/Km) came out at 8.12e+06 M⁻¹ s⁻¹.

Values taken from PMC6321292, “Comparative Transcriptomics Analysis for Gene Mining and Identification of a Cinnamyl Alcohol Dehydrogenase Involved in Methyleugenol Biosynthesis from Asarum sieboldii Miq” (Molecules, 2018).
